Measured values: the supplement of paper PMC7877785
± gives the uncertainty stated by the source.

Test: self-splicing fitness, log relative to wild type (ln ratio); higher = more splicing; Tetrahymena group I intron in knt gene, E. coli kanamycin selection, DiMSum; sequences stand for … in CUCUCU…GGAGGGAAAAGUUAUCAGGCAUGCACCUGGUAGCUAGUCUUUAAACCAAUAGAUUGCAUCGGUUUAAAAGGCAAGACCGUCAAAUUGCGGGAAAGGGGUCAACAGCCGUUCAGUACCAAGUCUCAGGGGAAACUUUGAGAUGGCCUUGCAAAGGGUAUGGUAAUAAGCUGACGGACAUGGUCCUAACCACGCAGCCAAGUCCUAAGUCAACAGAUCUUCUGUUGAUAUGGAUGCAGUUCACAGACUAAAUGUCGGUCGGGGAAGAUGUAUUCUUCUCAUAAGAUAUAGUCGGACCUCUCCUUAAUGGGAGCUAGCGGAUGAAGUGAUGCAACACUGGAGCCGCUGGGAACUAAUUUGUAUGCGAAAGUAUAUUGAUUAGUUUUGGAGUACUCGUGGUCG
In short: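 A randomised library covering all eight P1ex-region intron nucleotides was built with the intron in the knt kanamycin-resistance gene on pET-22b(+) and held in E. coli BL21(DE3). Cells were grown overnight at 37°C or 30°C on LB agar, with or without 25 μg/mL kanamycin, plus 100 μg/mL carbenicillin, 50 μM IPTG and 0.2% rhamnose, and pooled colonies were amplicon-sequenced on an Illumina HiSeq 2500. DiMSum fitness is the error-weighted combination of wild-type-normalised replicate fold changes, kanamycin versus none.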

Sequence: UGGAAGCAAUAUUACGGACU
- self-splicing fitness (ln) (30 °C): -0.345 ± 0.11
- self-splicing fitness (ln) (37 °C): 0.284 ± 0.12

Sequence: UGGAAGCAAUAUUACGGCCA
- self-splicing fitness (ln) (30 °C): -0.874 ± 0.21
- self-splicing fitness (ln) (37 °C): -0.244 ± 0.2

Sequence: UGGAAGCAAUAUUACGGGAC
- self-splicing fitness (ln) (30 °C): -2.63 ± 0.21
- self-splicing fitness (ln) (37 °C): -3.26 ± 0.32

Sequence: UGGAAGCAAUAUUACGGGCC
- self-splicing fitness (ln) (37 °C): -1.27 ± 0.34

Sequence: UGGAAGCAAUAUUACGUAUC
- self-splicing fitness (ln) (30 °C): -3.27 ± 0.27
- self-splicing fitness (ln) (37 °C): -2.28 ± 0.27

Sequence: UGGAAGCAAUAUUACGUAUU
- self-splicing fitness (ln) (30 °C): -3.06 ± 0.23
- self-splicing fitness (ln) (37 °C): -3.09 ± 0.33

Sequence: UGGAAGCAAUAUUACGUCGC
- self-splicing fitness (ln) (30 °C): -3.16 ± 0.45
- self-splicing fitness (ln) (37 °C): -2.39 ± 0.35

Sequence: UGGAAGCAAUAUUACGUGAU
- self-splicing fitness (ln) (30 °C): -2.32 ± 0.2
- self-splicing fitness (ln) (37 °C): -1.67 ± 0.22

Sequence: UGGAAGCAAUAUUACGUGCC
- self-splicing fitness (ln) (30 °C): -2.57 ± 0.27
- self-splicing fitness (ln) (37 °C): -0.372 ± 0.34

Sequence: UGGAAGCAAUAUUACGUUGU
- self-splicing fitness (ln) (30 °C): -3.64 ± 0.37
- self-splicing fitness (ln) (37 °C): -2.88 ± 0.3

Sequence: UGGCAGCAAUAUUACGAACC
- self-splicing fitness (ln) (30 °C): -1.66 ± 0.15
- self-splicing fitness (ln) (37 °C): -0.775 ± 0.2

Sequence: UGGCAGCAAUAUUACGAAUC
- self-splicing fitness (ln) (30 °C): -2.3 ± 0.25

Sequence: UGGCAGCAAUAUUACGACGC
- self-splicing fitness (ln) (37 °C): -1.72 ± 0.24

Sequence: UGGCAGCAAUAUUACGCACA
- self-splicing fitness (ln) (30 °C): -1.24 ± 0.11
- self-splicing fitness (ln) (37 °C): -0.127 ± 0.12

Sequence: UGGCAGCAAUAUUACGCACC
- self-splicing fitness (ln) (30 °C): -2.36 ± 0.22
- self-splicing fitness (ln) (37 °C): -1.37 ± 0.25

Sequence: UGGCAGCAAUAUUACGCAUC
- self-splicing fitness (ln) (30 °C): -1.93 ± 0.18
- self-splicing fitness (ln) (37 °C): -1.65 ± 0.16

Sequence: UGGCAGCAAUAUUACGCUAG
- self-splicing fitness (ln) (30 °C): -1.41 ± 0.077
- self-splicing fitness (ln) (37 °C): -0.514 ± 0.11

Sequence: UGGCAGCAAUAUUACGCUCU
- self-splicing fitness (ln) (30 °C): -2.8 ± 0.2
- self-splicing fitness (ln) (37 °C): -1.37 ± 0.16

Sequence: UGGCAGCAAUAUUACGGCUA
- self-splicing fitness (ln) (30 °C): -0.191 ± 0.15
- self-splicing fitness (ln) (37 °C): -0.128 ± 0.19

Sequence: UGGCAGCAAUAUUACGGGAC
- self-splicing fitness (ln) (30 °C): -2.88 ± 0.45
- self-splicing fitness (ln) (37 °C): -2.37 ± 0.49

Sequence: UGGCAGCAAUAUUACGGGUA
- self-splicing fitness (ln) (30 °C): -0.841 ± 0.11
- self-splicing fitness (ln) (37 °C): 0.0742 ± 0.11

Sequence: UGGCAGCAAUAUUACGGGUU
- self-splicing fitness (ln) (30 °C): -3.09 ± 0.14
- self-splicing fitness (ln) (37 °C): -2.45 ± 0.14

Sequence: UGGCAGCAAUAUUACGUACC
- self-splicing fitness (ln) (30 °C): -0.627 ± 0.17
- self-splicing fitness (ln) (37 °C): -0.885 ± 0.23

Sequence: UGGCAGCAAUAUUACGUAGA
- self-splicing fitness (ln) (30 °C): -0.926 ± 0.084
- self-splicing fitness (ln) (37 °C): -0.264 ± 0.094

Sequence: UGGCAGCAAUAUUACGUAGG
- self-splicing fitness (ln) (30 °C): -0.869 ± 0.092
- self-splicing fitness (ln) (37 °C): -0.975 ± 0.14

Sequence: UGGCAGCAAUAUUACGUGGG
- self-splicing fitness (ln) (30 °C): -2.8 ± 0.1
- self-splicing fitness (ln) (37 °C): -2.02 ± 0.11

Sequence: UGGGAGCAAUAUUACGACAA
- self-splicing fitness (ln) (30 °C): -2.75 ± 0.34
- self-splicing fitness (ln) (37 °C): -0.982 ± 0.3

Sequence: UGGGAGCAAUAUUACGAGUC
- self-splicing fitness (ln) (37 °C): -1.83 ± 0.47

Sequence: UGGGAGCAAUAUUACGAUUA
- self-splicing fitness (ln) (30 °C): -2.17 ± 0.22
- self-splicing fitness (ln) (37 °C): -2.1 ± 0.29

Sequence: UGGGAGCAAUAUUACGAUUC
- self-splicing fitness (ln) (30 °C): -4.38 ± 0.27
- self-splicing fitness (ln) (37 °C): -2.41 ± 0.21

Sequence: UGGGAGCAAUAUUACGCAUA
- self-splicing fitness (ln) (30 °C): -1.98 ± 0.27
- self-splicing fitness (ln) (37 °C): -1.22 ± 0.22

Sequence: UGGGAGCAAUAUUACGCAUG
- self-splicing fitness (ln) (30 °C): -3.28 ± 0.35
- self-splicing fitness (ln) (37 °C): -0.201 ± 0.22

Sequence: UGGGAGCAAUAUUACGGCGG
- self-splicing fitness (ln) (30 °C): -2.86 ± 0.4
- self-splicing fitness (ln) (37 °C): -1.23 ± 0.46

Sequence: UGGGAGCAAUAUUACGGGCC
- self-splicing fitness (ln) (30 °C): -2.63 ± 0.32
- self-splicing fitness (ln) (37 °C): -1.92 ± 0.35

Sequence: UGGGAGCAAUAUUACGGGGU
- self-splicing fitness (ln) (30 °C): -1.76 ± 0.33
- self-splicing fitness (ln) (37 °C): -1.7 ± 0.35

Sequence: UGGGAGCAAUAUUACGGUGU
- self-splicing fitness (ln) (30 °C): -2.52 ± 0.45
- self-splicing fitness (ln) (37 °C): -1.9 ± 0.37

Sequence: UGGGAGCAAUAUUACGUAGC
- self-splicing fitness (ln) (30 °C): -3.22 ± 0.27

Sequence: UGGGAGCAAUAUUACGUAUC
- self-splicing fitness (ln) (30 °C): -3.59 ± 0.39
- self-splicing fitness (ln) (37 °C): -2.56 ± 0.33

Sequence: UGGGAGCAAUAUUACGUCCC
- self-splicing fitness (ln) (30 °C): -3.01 ± 0.4
- self-splicing fitness (ln) (37 °C): -1.84 ± 0.41
